Experimental data published in PMC9482650, “Quantitative fragmentomics allow affinity mapping of interactomes” (Nature Communications, 2022).

target: T1, DLG3_1, Q92796; assay: holdup assay; design: key: below the threshold = too weak to quantify, mostly under pKd 3.1 to 4; conditions: plain residues with an end cap or a label only (N-terminal biotin on a linker: ado-ado)
T1 sequence (Q92796 125-227, limits assumed, looked up): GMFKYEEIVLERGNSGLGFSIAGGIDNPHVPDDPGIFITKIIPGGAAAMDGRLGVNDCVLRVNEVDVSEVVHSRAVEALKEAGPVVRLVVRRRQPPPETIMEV

| pKd | Binder |
| --- | --- |
| 3.83 | PEKVSNTTVV [IGSF5, Q9NSI5] |

target: GRASP, Q7Z6J2; assay: holdup assay; design: key: below the threshold = too weak to quantify, mostly under pKd 3.1 to 4; conditions: plain residues with an end cap or a label only (N-terminal biotin on a linker: ado-ado)
Sequence (Q7Z6J2 96-193): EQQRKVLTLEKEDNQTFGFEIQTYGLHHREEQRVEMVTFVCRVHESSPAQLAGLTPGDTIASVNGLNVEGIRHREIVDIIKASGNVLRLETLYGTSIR

| pKd | Binder |
| --- | --- |
| 4.38 | PEKVSNTTVV [IGSF5, Q9NSI5] |

target: T2, DFNB31_3, Q9P202; assay: holdup assay; design: key: below the threshold = too weak to quantify, mostly under pKd 3.1 to 4; conditions: plain residues with an end cap or a label only (N-terminal biotin on a linker: ado-ado)
T2 sequence (Q9P202 811-907, limits assumed, looked up): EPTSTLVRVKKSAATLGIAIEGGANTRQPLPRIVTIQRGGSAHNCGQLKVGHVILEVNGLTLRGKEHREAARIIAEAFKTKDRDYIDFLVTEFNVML

| pKd | Binder |
| --- | --- |
| 3.83 | PEKVSNTTVV [IGSF5, Q9NSI5] |

target: CASK, O14936; assay: holdup assay; design: key: below the threshold = too weak to quantify, mostly under pKd 3.1 to 4; conditions: plain residues with an end cap or a label only (N-terminal biotin on a linker: ado-ado)
Sequence (O14936 487-570): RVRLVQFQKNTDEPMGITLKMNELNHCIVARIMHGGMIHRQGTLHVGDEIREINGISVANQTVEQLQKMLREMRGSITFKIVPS

| pKd | Binder |
| --- | --- |
| below the threshold | PEKVSNTTVV [IGSF5, Q9NSI5] |

target: DLG1_1, Q12959; assay: holdup assay; design: key: below the threshold = too weak to quantify, mostly under pKd 3.1 to 4; conditions: plain residues with an end cap or a label only (N-terminal biotin on a linker: ado-ado)

| pKd | Binder |
| --- | --- |
| 4.25 | PEKVSNTTVV [IGSF5, Q9NSI5] |

target: T3, SNTA1, Q13424; assay: holdup assay; design: key: below the threshold = too weak to quantify, mostly under pKd 3.1 to 4; conditions: plain residues with an end cap or a label only (N-terminal biotin on a linker: ado-ado)
T3 sequence (Q13424 82-180, limits assumed, looked up): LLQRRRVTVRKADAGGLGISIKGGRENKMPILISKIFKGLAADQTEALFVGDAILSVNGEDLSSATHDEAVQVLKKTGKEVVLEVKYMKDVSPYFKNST

| pKd | Binder |
| --- | --- |
| 3.93 | PEKVSNTTVV [IGSF5, Q9NSI5] |

target: IL16_3, Q14005; assay: holdup assay; design: key: below the threshold = too weak to quantify, mostly under pKd 3.1 to 4; conditions: plain residues with an end cap or a label only (N-terminal biotin on a linker: ado-ado)
Sequence (Q14005 1107-1207): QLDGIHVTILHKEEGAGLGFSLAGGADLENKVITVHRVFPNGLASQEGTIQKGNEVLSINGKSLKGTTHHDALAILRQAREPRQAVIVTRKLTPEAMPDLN

| pKd | Binder |
| --- | --- |
| below the threshold | PEKVSNTTVV [IGSF5, Q9NSI5] |

target: T4, PDZD2_2, O15018; assay: holdup assay; design: key: below the threshold = too weak to quantify, mostly under pKd 3.1 to 4; conditions: plain residues with an end cap or a label only (N-terminal biotin on a linker: ado-ado)
T4 sequence (O15018 329-429, limits assumed, looked up): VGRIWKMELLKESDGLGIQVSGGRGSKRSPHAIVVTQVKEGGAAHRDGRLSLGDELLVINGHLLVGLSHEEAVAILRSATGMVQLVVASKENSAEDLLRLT

| pKd | Binder |
| --- | --- |
| 4.06 | PEKVSNTTVV [IGSF5, Q9NSI5] |

target: DLG1_2, Q12959; assay: holdup assay; design: key: below the threshold = too weak to quantify, mostly under pKd 3.1 to 4; conditions: plain residues with an end cap or a label only (N-terminal biotin on a linker: ado-ado)

| pKd | Binder |
| --- | --- |
| 4.64 | PEKVSNTTVV [IGSF5, Q9NSI5] |

target: MAGI2_2, Q86UL8; assay: holdup assay; design: key: below the threshold = too weak to quantify, mostly under pKd 3.1 to 4; conditions: plain residues with an end cap or a label only (N-terminal biotin on a linker: ado-ado)
Sequence (Q86UL8 410-522): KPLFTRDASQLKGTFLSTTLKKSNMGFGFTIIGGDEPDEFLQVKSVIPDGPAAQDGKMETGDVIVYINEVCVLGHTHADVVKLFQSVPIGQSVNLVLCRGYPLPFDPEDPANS

| pKd | Binder |
| --- | --- |
| 4.13 | PEKVSNTTVV [IGSF5, Q9NSI5] |

target: T5, NHERF3_4, Q5T2W1; assay: holdup assay; design: key: below the threshold = too weak to quantify, mostly under pKd 3.1 to 4; conditions: plain residues with an end cap or a label only (N-terminal biotin on a linker: ado-ado)
T5 sequence (Q5T2W1 373-468, limits assumed, looked up): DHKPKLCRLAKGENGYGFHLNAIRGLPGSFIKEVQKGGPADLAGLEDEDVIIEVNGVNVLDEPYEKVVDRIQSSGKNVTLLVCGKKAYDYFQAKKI

| pKd | Binder |
| --- | --- |
| below the threshold | PEKVSNTTVV [IGSF5, Q9NSI5] |

target: T6, MPP6, Q9NZW5; assay: holdup assay; design: key: below the threshold = too weak to quantify, mostly under pKd 3.1 to 4; conditions: plain residues with an end cap or a label only (N-terminal biotin on a linker: ado-ado)
T6 sequence (Q9NZW5 125-219, limits assumed, looked up): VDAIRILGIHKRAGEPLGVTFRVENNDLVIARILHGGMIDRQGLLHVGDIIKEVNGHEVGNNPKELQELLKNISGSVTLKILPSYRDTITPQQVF

| pKd | Binder |
| --- | --- |
| below the threshold | PEKVSNTTVV [IGSF5, Q9NSI5] |

target: NHERF2_2, Q15599; assay: holdup assay; design: key: below the threshold = too weak to quantify, mostly under pKd 3.1 to 4; conditions: plain residues with an end cap or a label only (N-terminal biotin on a linker: ado-ado)
Sequence (Q15599 142-238): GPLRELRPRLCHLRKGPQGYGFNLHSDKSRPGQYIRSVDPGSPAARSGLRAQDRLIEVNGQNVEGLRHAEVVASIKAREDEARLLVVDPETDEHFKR

| pKd | Binder |
| --- | --- |
| below the threshold | PEKVSNTTVV [IGSF5, Q9NSI5] |

target: FRMPD3, Q5JV73; assay: holdup assay; design: key: below the threshold = too weak to quantify, mostly under pKd 3.1 to 4; conditions: plain residues with an end cap or a label only (N-terminal biotin on a linker: ado-ado)
Sequence (Q5JV73 12-100): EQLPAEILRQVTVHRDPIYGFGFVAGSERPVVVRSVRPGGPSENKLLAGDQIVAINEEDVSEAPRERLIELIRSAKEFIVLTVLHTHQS

| pKd | Binder |
| --- | --- |
| below the threshold | PEKVSNTTVV [IGSF5, Q9NSI5] |

target: FRMPD2_3, Q68DX3; assay: holdup assay; design: key: below the threshold = too weak to quantify, mostly under pKd 3.1 to 4; conditions: plain residues with an end cap or a label only (N-terminal biotin on a linker: ado-ado)
Sequence (Q68DX3 1073-1166): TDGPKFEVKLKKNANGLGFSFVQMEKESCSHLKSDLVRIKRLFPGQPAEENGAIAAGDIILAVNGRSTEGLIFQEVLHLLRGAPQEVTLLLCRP

| pKd | Binder |
| --- | --- |
| below the threshold | PEKVSNTTVV [IGSF5, Q9NSI5] |

target: GRIP2_6, Q9C0E4; assay: holdup assay; design: key: below the threshold = too weak to quantify, mostly under pKd 3.1 to 4; conditions: plain residues with an end cap or a label only (N-terminal biotin on a linker: ado-ado)
Sequence (Q9C0E4 648-740): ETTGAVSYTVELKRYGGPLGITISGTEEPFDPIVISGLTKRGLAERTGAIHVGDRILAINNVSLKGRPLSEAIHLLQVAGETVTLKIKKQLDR

| pKd | Binder |
| --- | --- |
| below the threshold | PEKVSNTTVV [IGSF5, Q9NSI5] |

target: GOPC, Q9HD26; assay: holdup assay; design: key: below the threshold = too weak to quantify, mostly under pKd 3.1 to 4; conditions: plain residues with an end cap or a label only (N-terminal biotin on a linker: ado-ado)

| pKd | Binder |
| --- | --- |
| 3.61 | PEKVSNTTVV [IGSF5, Q9NSI5] |

target: T7, SIPA1L2, Q9P2F8; assay: holdup assay; design: key: below the threshold = too weak to quantify, mostly under pKd 3.1 to 4; conditions: plain residues with an end cap or a label only (N-terminal biotin on a linker: ado-ado)
T7 sequence (Q9P2F8 945-1036, limits assumed, looked up): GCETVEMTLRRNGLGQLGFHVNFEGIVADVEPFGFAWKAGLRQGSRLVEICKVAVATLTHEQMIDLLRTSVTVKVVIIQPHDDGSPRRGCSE

| pKd | Binder |
| --- | --- |
| below the threshold | PEKVSNTTVV [IGSF5, Q9NSI5] |

target: MAST1, Q9Y2H9; assay: holdup assay; design: key: below the threshold = too weak to quantify, mostly under pKd 3.1 to 4; conditions: plain residues with an end cap or a label only (N-terminal biotin on a linker: ado-ado)
Sequence (Q9Y2H9 962-1065): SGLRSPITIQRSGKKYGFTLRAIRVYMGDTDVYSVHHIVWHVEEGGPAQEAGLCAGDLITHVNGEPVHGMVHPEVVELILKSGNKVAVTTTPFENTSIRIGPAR

| pKd | Binder |
| --- | --- |
| 4.53 | PEKVSNTTVV [IGSF5, Q9NSI5] |

target: T8, LIN7A, O14910; assay: holdup assay; design: key: below the threshold = too weak to quantify, mostly under pKd 3.1 to 4; conditions: plain residues with an end cap or a label only (N-terminal biotin on a linker: ado-ado)
T8 sequence (O14910 103-200, limits assumed, looked up): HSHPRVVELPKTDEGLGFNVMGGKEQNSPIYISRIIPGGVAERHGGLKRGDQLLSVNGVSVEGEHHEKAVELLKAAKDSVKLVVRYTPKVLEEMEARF

| pKd | Binder |
| --- | --- |
| below the threshold | PEKVSNTTVV [IGSF5, Q9NSI5] |

target: T9, MPDZ_5, O75970; assay: holdup assay; design: key: below the threshold = too weak to quantify, mostly under pKd 3.1 to 4; conditions: plain residues with an end cap or a label only (N-terminal biotin on a linker: ado-ado)
T9 sequence (O75970 695-796, limits assumed, looked up): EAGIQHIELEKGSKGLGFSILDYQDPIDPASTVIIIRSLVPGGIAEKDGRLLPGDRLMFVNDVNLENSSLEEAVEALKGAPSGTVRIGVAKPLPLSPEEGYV

| pKd | Binder |
| --- | --- |
| below the threshold | PEKVSNTTVV [IGSF5, Q9NSI5] |

target: DLG1_3, Q12959; assay: holdup assay; design: key: below the threshold = too weak to quantify, mostly under pKd 3.1 to 4; conditions: plain residues with an end cap or a label only (N-terminal biotin on a linker: ado-ado)

| pKd | Binder |
| --- | --- |
| below the threshold | PEKVSNTTVV [IGSF5, Q9NSI5] |

target: GRID2IP_2, A4D2P6; assay: holdup assay; design: key: below the threshold = too weak to quantify, mostly under pKd 3.1 to 4; conditions: plain residues with an end cap or a label only (N-terminal biotin on a linker: ado-ado)
Sequence (A4D2P6 272-370): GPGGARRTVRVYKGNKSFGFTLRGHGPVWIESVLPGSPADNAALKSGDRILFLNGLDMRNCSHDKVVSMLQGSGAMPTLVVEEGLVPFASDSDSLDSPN

| pKd | Binder |
| --- | --- |
| below the threshold | PEKVSNTTVV [IGSF5, Q9NSI5] |

target: GRIP2_5, Q9C0E4; assay: holdup assay; design: key: below the threshold = too weak to quantify, mostly under pKd 3.1 to 4; conditions: plain residues with an end cap or a label only (N-terminal biotin on a linker: ado-ado)
Sequence (Q9C0E4 544-642): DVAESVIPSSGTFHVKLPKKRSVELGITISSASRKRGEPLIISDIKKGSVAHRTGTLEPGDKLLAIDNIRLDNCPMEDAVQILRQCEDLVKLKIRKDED

| pKd | Binder |
| --- | --- |
| below the threshold | PEKVSNTTVV [IGSF5, Q9NSI5] |

target: HTRA2, O43464; assay: holdup assay; design: key: below the threshold = too weak to quantify, mostly under pKd 3.1 to 4; conditions: plain residues with an end cap or a label only (N-terminal biotin on a linker: ado-ado)
Sequence (O43464 355-458): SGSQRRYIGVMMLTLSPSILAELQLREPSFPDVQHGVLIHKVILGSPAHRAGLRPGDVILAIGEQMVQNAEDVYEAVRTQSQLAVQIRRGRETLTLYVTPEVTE

| pKd | Binder |
| --- | --- |
| below the threshold | PEKVSNTTVV [IGSF5, Q9NSI5] |

target: T10, PCLO, Q9Y6V0; assay: holdup assay; design: key: below the threshold = too weak to quantify, mostly under pKd 3.1 to 4; conditions: plain residues with an end cap or a label only (N-terminal biotin on a linker: ado-ado)
T10 sequence (Q9Y6V0 4491-4600, limits assumed, looked up): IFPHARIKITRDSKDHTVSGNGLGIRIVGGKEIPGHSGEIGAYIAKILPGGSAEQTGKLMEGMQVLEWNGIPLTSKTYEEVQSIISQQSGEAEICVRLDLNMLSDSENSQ

| pKd | Binder |
| --- | --- |
| below the threshold | PEKVSNTTVV [IGSF5, Q9NSI5] |

target: T11, NHERF3_1, Q5T2W1; assay: holdup assay; design: key: below the threshold = too weak to quantify, mostly under pKd 3.1 to 4; conditions: plain residues with an end cap or a label only (N-terminal biotin on a linker: ado-ado)
T11 sequence (Q5T2W1 4-100, limits assumed, looked up): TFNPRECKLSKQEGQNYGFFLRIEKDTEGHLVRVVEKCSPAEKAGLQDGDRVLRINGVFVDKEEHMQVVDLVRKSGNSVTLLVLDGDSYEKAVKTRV

| pKd | Binder |
| --- | --- |
| below the threshold | PEKVSNTTVV [IGSF5, Q9NSI5] |
